According to article PMC5358875 (Journal of the American Chemical Society, 2017):
One block for each molecule: values may come before it. Bridge positions count the residues as written; N and C are the ends. Square brackets hold non-standard residues; d marks the D form. Ends that are not written are not given here. Peptide text beside a SMILES is read from it. I, II: the chains in the order shown. * marks the point of attachment. 5‑TAMRA = CN(C)c1ccc2c(-c3ccc(C(=O)*)cc3C(=O)[O-])c3ccc(N(C)C)cc3[o+]c2c1; Lys(N3) = [N-]=[N+]=NCCCC[C@H](N)C(=O)O; Aha = [N-]=[N+]=NCC[C@H](N)C(=O)O; m3c = not defined here; m3 = not defined here; Ahx = NCCCCCC(=O)O

T1: TNKS2 ARC4 (Homo sapiens, UniProt Q9H2K2)
T1 construct: GST (cleaved yes); made in house; host or cells: E. coli C41(DE3)
T1 sequence (Q9H2K2 488-649): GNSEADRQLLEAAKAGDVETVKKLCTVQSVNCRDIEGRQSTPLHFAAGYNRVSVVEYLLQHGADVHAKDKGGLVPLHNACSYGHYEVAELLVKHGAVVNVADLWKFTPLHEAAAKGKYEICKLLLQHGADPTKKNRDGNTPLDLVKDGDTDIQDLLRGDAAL

T2: human tankyrase 2 ankyrin repeat cluster 4 (TNKS2 ARC4, residues 488-649) (human, UniProt Q9H2K2 488-649)
T2 sequence (looked up): T1 sequence (Q9H2K2 488-649)

T3: human tankyrase 1 ankyrin repeat clusters 2-3 (TNKS1 ARC2-3, residues 315-662) (human, UniProt O95271 315-662)
T3 sequence (looked up): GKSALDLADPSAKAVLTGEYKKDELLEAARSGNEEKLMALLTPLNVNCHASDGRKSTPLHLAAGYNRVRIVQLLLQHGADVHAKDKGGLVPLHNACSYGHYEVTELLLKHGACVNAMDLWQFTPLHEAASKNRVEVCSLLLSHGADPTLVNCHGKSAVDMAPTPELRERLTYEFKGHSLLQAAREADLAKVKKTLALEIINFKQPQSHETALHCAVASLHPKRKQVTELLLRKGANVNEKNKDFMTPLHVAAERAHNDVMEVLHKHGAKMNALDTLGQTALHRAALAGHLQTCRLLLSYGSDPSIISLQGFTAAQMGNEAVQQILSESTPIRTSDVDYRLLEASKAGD

B1: pep1 (peptide)
peptide: Ac-REAGDGEE
B2: cp4n2m3 (peptide)
chain: Ac-RE[Aha]GDG[Aha]E
modifications: triazole 3-7 via m3; reading uncertain
B3: TNKS1 ARC2–3 (315–662) (domain or fragment, human, UniProt O95271 315-662, looked up)
chain: T3 sequence (looked up)
B4: human Axin1 residues 1-80 (domain or fragment, UniProt O15169 1-80, looked up)
chain: MNIQEQGFPLDLGASFTEDAPRPPVPGEEGELVSTDPRPASYSFCSGKGVGIKGETSTATPRRSDLDLGYEPEGSASPTP
B5: TNKS2 ARC4 (488–649) (domain or fragment, human, UniProt Q9H2K2 488-649, looked up)
chain: T1 sequence (Q9H2K2 488-649)
B6: T-cp4n2m3c-Antp (peptide)
chain 1: REXGDGXE
chain 2: RQIKIWFQNRRMKWKK
modifications: 5-TAMRA-Ahx on the N-terminus; X3 and X7 (n2, 2 CH2): azido unnatural amino acids cross-linked through two triazoles by linker m3c, which carries the second chain | two Ahx spacers between the m3c linker and the N-terminus
B7: T-cp4n2m3c-R6 (peptide)
chain 1: {5‑TAMRA-Ahx}-RE[Aha]GDG[Aha]E
chain 2: RRRRRR
modifications: triazole I:3-I:7 via m3c; not fully specified (N-terminus); reading uncertain; also: chain 2 N-terminus conjugated to m3c linker of chain 1
B8: human Axin1 residues 1-43 (domain or fragment, UniProt O15169 1-43, looked up)
chain: MNIQEQGFPLDLGASFTEDAPRPPVPGEEGELVSTDPRPASYS
B9: T-pep1 (TAMRA-Ahx-REAGDGEE) (peptide)
peptide: {5‑TAMRA-Ahx}-REAGDGEE
B10: T-pep1 (TAMRA-Ahx-REAGDGEE) (peptide)
peptide: {5‑TAMRA-Ahx}-REAGDGEE

What was measured:
TNKS2 ARC4 = target: T1, TNKS2 ARC4; assay: Competitive fluorescence polarization, TNKS2 ARC4; type: binding; conditions: unlabeled peptides; tracer T-pep1 bound to ARC4; read-out: Kd TNKS2 ARC4 (Competition FP)
Protocol: Fluorescence polarization (FP) assays were performed in 96-well half area black microplates (Corning) on a CLARIOstar microplate reader (BMG labtech) using excitation filter 540–20 nm, dichroic mirror LP 566 nm, and emission filter 590–20 nm. All peptides were dissolved in water as stock solutions. For direct FP assays, the stock concentrations of the TAMRA-labeled peptides were determined based on the 5-TAMRA absorbance at 556 nm (extinction coefficient ε = 89,000 M^–1 cm^–1) measured on a NanoDrop 2000 (Thermo Scientific) and verified by amino acid analysis (Department of Biochemistry, University of Cambridge). […] Data were analyzed on GraphPad Prism 5.0, and the dissociation constant, Kd, was determined using the following equation assuming the ratio between the concentration of the bound and that of the total TAMRA-labeled peptide is proportional to the fluorescence polarization [drawing 1] where FP is the fluorescence polarization, B is the minimum FP, T is the maximum FP, L0 is the total concentration of TAMRA-labeled peptide, P0 is the total concentration of protein, and Kd is the dissociation constant.
For the competition FP assays, the stock concentrations of the unlabeled macrocyclized peptides or the Axin1 fragments were determined by amino acid analysis. […]

TNKS2 ARC4 (488–649) [1] = target: B5; assay: pull-down; GST-Axin1 1–80 on glutathione beads incubated with TNKS2 ARC4 (89 μM), washed, then incubated 0.5 h at room temperature with unlabeled peptide (0–200 μM); wash buffer 50 mM Tris·HCl pH 8.0, 500 mM NaCl, 2 mM DTT; SDS-PAGE, Coomassie, densitometry; conditions: both partners purified
TNKS2 ARC4 (488–649) [2] = target: B5; assay: fluorescence polarisation; competitive FP; T-pep1 (20 nM) with TNKS2 ARC4 (3 μM) as tracer, unlabeled peptide serially diluted; PBS, 0.05% Tween 20; 30 min at 25 °C; conditions: both partners purified
human Axin1_1–80 = human Axin1_1–80 (human, UniProt O15169 1-80); assay: ITC; TNKS2 ARC4 (160–280 μM) or TNKS1 ARC2–3 (60–150 μM) titrated into the cell holding peptide (5–15 μM) or Axin1 fragment (8–12 μM); PBS, 0.5 mM TCEP; 25 °C; one-site model; conditions: both partners purified
[3] = target: T2, human tankyrase 2 ankyrin repeat …; assay: ITC; TNKS2 ARC4 (160-280 uM) or TNKS1 ARC2-3 (60-150 uM) titrated into the cell with unlabeled peptide (5-15 uM) or Axin1 fragment (8-12 uM); PBS, 0.5 mM TCEP; 25 C; one-site model; stoichiometry = TNKS per peptide or Axin1; conditions: both partners purified
[4] = target: T3, human tankyrase 1 ankyrin repeat …; assay: as above; conditions: both partners purified
[5] = target: T2, human tankyrase 2 ankyrin repeat …; assay: fluorescence polarisation; competition: unlabeled peptide or Axin1 fragment diluted 2-fold serially against TAMRA-labeled pep1 (20 nM) with TNKS2 ARC4 (3 uM); PBS, 0.05% Tween 20; 30 min, 25 C; conditions: both partners purified
T-cp4n2m3c = assay: fluorescence polarisation; direct FP; TAMRA-labeled peptide (20 nM, 50 μL) mixed with serially diluted TNKS2 ARC4 (40–0 μM, 50 μL); 50 mM HEPES pH 7.5, 300 mM NaCl, 2 mM DTT, 0.05% Tween 20; 30 min at 25 °C
[6] = target: T2, human tankyrase 2 ankyrin repeat …; assay: fluorescence polarisation; direct: TNKS2 ARC4 or TNKS1 ARC2-3 diluted 2-fold serially (40-0 uM, 50 uL) and mixed with TAMRA-labeled peptide (20 nM, 50 uL); 50 mM HEPES pH 7.5, 300 mM NaCl, 2 mM DTT, 0.05% Tween 20; 30 min, 25 C; conditions: both partners purified
[7] = target: T3, human tankyrase 1 ankyrin repeat …; assay: fluorescence polarisation; competition: Axin1 fragment diluted 2-fold serially against TAMRA-labeled pep1 (20 nM) with TNKS1 ARC2-3 (1.2 uM); PBS, 0.05% Tween 20; 30 min, 25 C; conditions: both partners purified
TNKS2 ARC4 (488–649) [8] = target: B5; assay: fluorescence polarisation; direct FP; TAMRA-labeled peptide (20 nM, 50 μL) mixed with serially diluted TNKS2 ARC4 (40–0 μM, 50 μL); 50 mM HEPES pH 7.5, 300 mM NaCl, 2 mM DTT, 0.05% Tween 20; 30 min at 25 °C; conditions: both partners purified
[9] = target: T2, human tankyrase 2 ankyrin repeat …; assay: fluorescence polarisation; direct: TNKS2 ARC4 or TNKS1 ARC2-3 diluted 2-fold serially (40-0 uM, 50 uL) and mixed with TAMRA-labeled peptide (20 nM, 50 uL); 50 mM HEPES pH 7.5, 300 mM NaCl, 2 mM DTT, 0.05% Tween 20; 30 min, 25 C; conditions: both partners purified; remark: listed apart in the source
[10] = target: T3, human tankyrase 1 ankyrin repeat …; assay: as above; conditions: both partners purified

Kd (TNKS2 ARC4): 1400 ± 100 nM
Molecule: CC(=O)N[C@@H](CCCNC(=N)N)C(=O)N[C@@H](CCC(=O)O)C(=O)N[C@@H](CCCCN=[N+]=[N-])C(=O)NCC(=O)N[C@@H](CC(=O)O)C(=O)NCC(=O)N[C@@H](CCCCN=[N+]=[N-])C(=O)N[C@@H](CCC(=O)O)C(N)=O [cp4n4] (Ac-RE[Lys(N3)]GDG[Lys(N3)]E-NH2)

Kd (TNKS2 ARC4): 2600 ± 100 nM
Molecule: CC(=O)N[C@@H](CCCNC(=N)N)C(=O)N[C@@H](CCC(=O)O)C(=O)N[C@@H](CCCCN=[N+]=[N-])C(=O)NCC(=O)N[C@@H](CC(=O)O)C(=O)NCC(=O)N[C@@H](CCC(=O)O)C(=O)N[C@@H](CCCCN=[N+]=[N-])C(N)=O [cp5n4] (Ac-RE[Lys(N3)]GDGE[Lys(N3)]-NH2)

Molecule: B1
IC50 (TNKS2 ARC4 (488–649) [1]): ~40000 nM
Kd (TNKS2 ARC4 (488–649) [2]): 1200 ± 100 nM

Molecule: B2
IC50 (TNKS2 ARC4 (488–649) [1]): ~20000 nM

Molecule: B3
stoichiometry N (human Axin1_1–80): 2

Molecule: B4
Kd [3]: 2620 ± 360 nM
stoichiometry N [3]: 1 ± 0.03
Kd [4]: 1590 ± 90 nM
stoichiometry N [4]: 2.1 ± 0.02
Kd [5]: 2780 ± 220 nM

Molecule: B5
stoichiometry N (human Axin1_1–80): 1
fold higher affinity than T-pep1 (T-cp4n2m3c): 2 fold

Molecule: B6
Kd [6]: 490 ± 20 nM

Molecule: B7
Kd [6]: 950 ± 20 nM

Molecule: B8
Kd [3]: 2120 ± 160 nM
stoichiometry N [3]: 1 ± 0.02
Kd [4]: 830 ± 80 nM
stoichiometry N [4]: 1 ± 0.01
Kd [5]: 3680 ± 180 nM
Kd [7]: 560 ± 40 nM

Molecule: B9
Kd (TNKS2 ARC4 (488–649) [8]): 800 ± 100 nM

Molecule: B10
Kd [9]: 780 ± 60 nM
Kd [10]: 190 ± 4 nM
